How the values were obtained:
Mouse latent myostatin = biological target: T1, Mouse latent myostatin (mouse, UniProt O08689 26-267; O08689 268-376, limits assumed); experiment: ELISA: biotinylated antigen (4 nM) on streptavidin-coated plate, antibody titrated, anti-human IgG-HRP, ABTS, OD405
T1 sequence 1: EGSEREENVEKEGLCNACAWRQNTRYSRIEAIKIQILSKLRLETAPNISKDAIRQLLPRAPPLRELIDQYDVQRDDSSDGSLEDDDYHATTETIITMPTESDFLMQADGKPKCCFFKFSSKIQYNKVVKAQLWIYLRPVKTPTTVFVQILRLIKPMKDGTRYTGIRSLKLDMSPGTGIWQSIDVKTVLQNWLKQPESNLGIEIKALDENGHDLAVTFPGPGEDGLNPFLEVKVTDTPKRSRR
T1 sequence 2: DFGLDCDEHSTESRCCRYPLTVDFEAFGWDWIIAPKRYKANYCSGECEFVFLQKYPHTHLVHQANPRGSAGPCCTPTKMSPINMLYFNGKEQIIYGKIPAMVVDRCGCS
Protocol: (§1) Uncoated ELISA plates (NUNC-IMMUNO plate MAXISORP surface, Nalge Nunc International) were coated with 20 μL of 50 nM streptavidin (GenScript) for 1 hour at room temperature. Plates were then washed with PBST three times and blocked with 50 μL 20% Blocking One (Nacalai Tesque) overnight. On the next day, each well of each plate was incubated with biotinylated mature myostatin, human or mouse biotinylated latent myostatin, or biotinylated recombinant mouse myostatin propeptide-Fc chimera protein (R&D Systems) at 4 nM/well/20 μL for 2 hours. After washing, 20 μL of antibody sample was added to the wells and the plates were left for 1 hour. The plates were washed and 20 μL of anti-human IgG-horseradish peroxidase (HRP) (Abcam) diluted in HEPES-buffered saline was added, and the plates were left for another hour. The plates were then washed again, and then 50 μL ABTS (KPL) was added to each well, and the plates were incubated for 1 hour.

Human latent myostatin [1] = biological target: T2, Human latent myostatin (human, UniProt O14793 25-266; O14793 267-375); experiment: as above
T2 construct: Biotinylated in the ELISAs; also called human myostatin latent form
T2 sequence 1: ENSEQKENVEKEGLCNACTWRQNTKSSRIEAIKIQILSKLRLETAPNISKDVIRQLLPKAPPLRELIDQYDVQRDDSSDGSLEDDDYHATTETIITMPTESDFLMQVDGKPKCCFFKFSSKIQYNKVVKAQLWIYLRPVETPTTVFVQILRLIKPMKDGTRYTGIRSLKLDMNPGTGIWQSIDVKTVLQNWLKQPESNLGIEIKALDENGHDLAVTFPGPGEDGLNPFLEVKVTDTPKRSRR
T2 sequence 2: T1 sequence 2
Protocol: as §1

Mature myostatin = biological target: T3, Mature myostatin (human, UniProt O14793 267-375); experiment: as above
T3 construct: Disulfide-bonded homodimer; Biotinylated in the ELISA; also called human myostatin mature form; active myostatin
T3 sequence: T1 sequence 2
Protocol: as §1

Human latent myostatin [2] = biological target: T2, Human latent myostatin; experiment: ELISA: biotinylated human latent myostatin (2 nM) on streptavidin-coated plate, antibody titrated, anti-human IgG-HRP, ABTS, OD405
Protocol: Uncoated ELISA plates (NUNC-IMMUNO plate MAXISORP™ surface, Nalge Nunc International) were coated with 20 μL of 50 nM streptavidin (GenScript) for 2 hour at room temperature. Plates were then washed with PBST three times and blocked with 50 μL 20% Blocking One (Nacalai Tesque) for overnight. On the next day, each well of the plates was incubated with biotinylated human latent myostatin at 2 nM/well/20 μL or biotinylated human latent GDF11 at 20 nM/well/20 μL for 2 hours. After washing, 20 μL of antibody sample was added to the wells and the plates were left for 1 hour. The plates were washed and 20 μL of anti-human IgG-horseradish peroxidase (HRP) (Abcam) diluted in HEPES-buffered saline was added, and the plates were left for another hour. The wells were washed again, and then 50 μL ABTS (KPL) was added to each well, and the plates were incubated for 1 hour.

[3] = biological target: T4, cynomolgus monkey FcγRIIIaS extracellular domain, His-tagged (cynomolgus monkey, UniProt Q8SPW2 21-206 at identity 1.00)); experiment: SPR Biacore, KD(SG1)/KD(variant)
T4 construct: also called cyno FcγRIIIaS; cynoFcγRIIIaS; not shown: C-terminal His-tag
T4 chain: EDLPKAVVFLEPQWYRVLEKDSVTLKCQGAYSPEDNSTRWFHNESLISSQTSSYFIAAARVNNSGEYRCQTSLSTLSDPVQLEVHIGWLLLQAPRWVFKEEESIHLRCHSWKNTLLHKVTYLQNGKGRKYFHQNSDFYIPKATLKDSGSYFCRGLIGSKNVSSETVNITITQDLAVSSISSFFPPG

[4] = biological target: T5, human FcγRIIb extracellular domain, His-tagged (human, UniProt P31994 43-217); experiment: SPR Biacore, KD(SG1)/KD(variant)
T5 construct: also called FcgRIIb (human); not shown: C-terminal His-tag
T5 sequence: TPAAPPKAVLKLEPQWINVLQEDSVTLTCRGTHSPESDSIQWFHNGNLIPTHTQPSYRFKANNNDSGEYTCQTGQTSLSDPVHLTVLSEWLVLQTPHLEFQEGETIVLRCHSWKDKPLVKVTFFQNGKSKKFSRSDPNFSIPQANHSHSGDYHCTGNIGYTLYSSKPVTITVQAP

[5] = biological target: T6, cynomolgus monkey FcγRIIa1 extracellular domain, His-tagged (cynomolgus monkey); experiment: SPR Biacore, KD(SG1)/KD(variant)
T6 construct: also called cyno FcγRIIa1; cynoFcgRIIa1; not shown: C-terminal His-tag
T6 chain: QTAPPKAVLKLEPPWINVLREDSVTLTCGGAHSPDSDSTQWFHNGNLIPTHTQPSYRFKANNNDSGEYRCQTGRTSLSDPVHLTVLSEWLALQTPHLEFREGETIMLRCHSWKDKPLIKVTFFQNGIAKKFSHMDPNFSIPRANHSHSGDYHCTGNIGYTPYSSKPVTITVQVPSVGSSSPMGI

[6] = biological target: T7, human FcγRIIaH extracellular domain, His-tagged (human, UniProt P12318 34-217); experiment: SPR Biacore, KD(SG1)/KD(variant)
T7 construct: also called human FcγRIIa (type H); FcgRIIaH; not shown: C-terminal His-tag
T7 sequence: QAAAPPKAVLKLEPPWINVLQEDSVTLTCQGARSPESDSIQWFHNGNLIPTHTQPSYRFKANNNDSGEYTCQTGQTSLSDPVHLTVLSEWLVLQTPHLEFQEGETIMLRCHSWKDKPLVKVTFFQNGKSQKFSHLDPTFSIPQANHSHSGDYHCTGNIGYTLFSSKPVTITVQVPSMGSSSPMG

GST-hMSTN 81-180aa = biological target: T8, GST-hMSTN 81-180aa (human, UniProt A1C2U3 81-180 (Pongo pygmaeus entry)); experiment: Western blot with the antibody as probe on GST-tagged 100-amino-acid fragments of the human latent myostatin propeptide expressed in E. coli BL21 (lanes 1-8), GST control (lane 9) and human latent myostatin 100 ng (lane 10)
T8 sequence: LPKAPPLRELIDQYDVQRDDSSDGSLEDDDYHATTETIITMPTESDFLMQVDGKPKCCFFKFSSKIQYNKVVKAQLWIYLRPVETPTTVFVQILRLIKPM
From the text: (§2) Fragments of the N-terminal propeptide coding region of human latent myostatin were cloned into a pGEX4.1 vector so as to produce GST tagged propeptide fragments of 100 amino acid each, with 80 amino acid overlap (FIG. 22A). Protein expression was induced in transformed BL21 competent cells with Overnight Express Autoinduction System (Merck Millipore) and protein was extracted using the BUGBUSTER® protein extraction reagent (Novagen).

GST-hMSTN 41-140aa = biological target: T9, GST-hMSTN 41-140aa (human, UniProt O14793 41-140); experiment: as above
T9 sequence: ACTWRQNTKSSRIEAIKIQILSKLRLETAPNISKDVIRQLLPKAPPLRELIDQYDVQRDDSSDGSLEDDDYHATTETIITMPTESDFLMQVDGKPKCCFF
From the text: as §2

GST-hMSTN 61-160aa = biological target: T10, GST-hMSTN 61-160aa (human, UniProt O14793 61-160); experiment: as above
T10 sequence: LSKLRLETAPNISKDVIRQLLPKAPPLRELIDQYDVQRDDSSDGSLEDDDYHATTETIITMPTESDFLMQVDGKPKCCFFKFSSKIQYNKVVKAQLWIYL
From the text: as §2

GST-hMSTN 101-200aa = biological target: T11, GST-hMSTN 101-200aa (human, UniProt A1C2U3 101-200 (Pongo pygmaeus entry)); experiment: as above
T11 sequence: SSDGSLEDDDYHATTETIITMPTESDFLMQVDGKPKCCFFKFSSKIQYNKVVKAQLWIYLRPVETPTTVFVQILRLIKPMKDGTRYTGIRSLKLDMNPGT
From the text: as §2

B1: MS_MST1032Ha-G1m/MST1032La-k0MC (antibody, human IgG1, kappa, V domains shown)
VH: QSLEESGGRLVTPGGSLTVTCRVSGIDLSSYDISWVRQAPGKGLEWIGIISYAGSTYYASWAKGRFTISKTSTTVDLKMTSLTTEDTATYFCARGVPAYSTGGDLWGPGTLVTVSS
VL: AQVLTQTASSVSAAVGGTVTINCQSSQSVYDNNWLSWFQQKPGQPPKLLIYWASTLASGVPSRFKGSGSGTQFTLTISDLECDDAATYYCAGGYGGGLYAFGGGTKVEIKR
notes: Rabbit/human chimeric antibody; also called MST1032-G1m
EC50 (read off the curve) (Mouse latent myostatin): ~0.01 µg/mL
EC50 (read off the curve) (Human latent myostatin [1]): ~0.008 µg/mL
binding result (Mature myostatin): no binding (tested: 10 ng/µL (log 1))
EC50 (read off the curve) (Human latent myostatin [2]): ~0.02 µg/mL

B2: M103205H795-MY068/M103202L889-SK1 (antibody, human IgG1, kappa, name in EU numbering)
heavy: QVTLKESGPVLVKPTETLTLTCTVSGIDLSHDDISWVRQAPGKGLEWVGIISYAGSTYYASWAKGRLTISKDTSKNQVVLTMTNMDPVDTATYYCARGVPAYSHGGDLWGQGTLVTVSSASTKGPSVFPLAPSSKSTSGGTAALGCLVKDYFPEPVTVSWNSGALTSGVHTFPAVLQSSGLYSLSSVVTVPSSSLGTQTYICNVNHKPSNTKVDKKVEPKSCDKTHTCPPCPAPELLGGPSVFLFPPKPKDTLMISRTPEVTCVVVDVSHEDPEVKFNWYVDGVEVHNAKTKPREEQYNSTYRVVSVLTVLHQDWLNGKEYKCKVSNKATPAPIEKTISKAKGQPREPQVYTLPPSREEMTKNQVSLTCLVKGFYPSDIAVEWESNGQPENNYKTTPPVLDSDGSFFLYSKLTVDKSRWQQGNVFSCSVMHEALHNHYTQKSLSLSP
light: DIVMTQSPATLSLSPGERATLSCTSSQSVYHANWLSWFQQKPGQPPKLLIYWASTLAYGVPSRFSGSGSGTDFTLTISSLQPEDAATYYCAGGYGGGRYAFGQGTKVEIKRTVAAPSVFIFPPSDEQLKSGTASVVCLLNNFYPREAKVQWKVDNALQSGNSQESVTEQDSKDSTYSLSSTLTLSKADYEKHKVYACEVTHQGLSSPVTKSFNRGEC
notes: Substitution introduced into M103205H795-SG1; EU numbering
KD fold (SG1 = 1) [3]: 0.62 fold
KD fold (SG1 = 1) [4]: 2.2 fold

B3: M103205H795-MY124/M103202L889-SK1 (antibody, human IgG1, kappa, name in EU numbering)
heavy: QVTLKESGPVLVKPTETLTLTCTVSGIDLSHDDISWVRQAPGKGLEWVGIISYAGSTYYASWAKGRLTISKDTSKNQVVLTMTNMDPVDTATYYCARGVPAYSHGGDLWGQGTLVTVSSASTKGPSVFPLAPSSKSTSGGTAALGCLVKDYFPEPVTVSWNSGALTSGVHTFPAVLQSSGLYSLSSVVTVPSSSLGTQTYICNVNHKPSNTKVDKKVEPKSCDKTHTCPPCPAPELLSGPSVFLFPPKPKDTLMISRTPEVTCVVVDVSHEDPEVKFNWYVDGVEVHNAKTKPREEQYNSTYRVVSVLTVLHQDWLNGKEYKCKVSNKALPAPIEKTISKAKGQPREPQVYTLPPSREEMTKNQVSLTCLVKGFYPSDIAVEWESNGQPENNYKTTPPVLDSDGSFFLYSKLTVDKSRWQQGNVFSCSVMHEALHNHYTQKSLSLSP
light: B2 light
notes: as for B2
KD fold (SG1 = 1) [5]: 1.2 fold
KD fold (SG1 = 1) [6]: 4.5 fold

B4: MST1573 (antibody, human IgG1, kappa, V domains shown)
VH: QSVEESGGRLVTPGTPLTLTCTVSGIDLSSSSMIWVRQAPGEGLKYIGFISKSGYTYYASWAKGRFTISKTSTTVDLKITSPTTEDTATYFCARGGYSGDWDYFTLWGPGTLVTVSS
VL: DIVMTQTPASVEAAVGGTVTIKCQASESIGNALAWYQQKPGQPPKLLIYGAFNLESGVPSRFRGSGSGTEYTLTISDLECDDAATYYCQGYFWSSSTIYAFWAFGGGTKVEIKR
notes: Constant regions as for MST1504
binding result (GST-hMSTN 81-180aa): no binding
binding result (GST-hMSTN 41-140aa): no binding
binding result (GST-hMSTN 61-160aa): no binding
binding result (GST-hMSTN 101-200aa): no binding
